From patent WO2013005649A1 come the findings set out here.

Chain of human CCR6 N-terminal extracellular domain Fc fusion protein NthCCR6-IgG4Fc (human) (chain, as listed by the source limits assumed): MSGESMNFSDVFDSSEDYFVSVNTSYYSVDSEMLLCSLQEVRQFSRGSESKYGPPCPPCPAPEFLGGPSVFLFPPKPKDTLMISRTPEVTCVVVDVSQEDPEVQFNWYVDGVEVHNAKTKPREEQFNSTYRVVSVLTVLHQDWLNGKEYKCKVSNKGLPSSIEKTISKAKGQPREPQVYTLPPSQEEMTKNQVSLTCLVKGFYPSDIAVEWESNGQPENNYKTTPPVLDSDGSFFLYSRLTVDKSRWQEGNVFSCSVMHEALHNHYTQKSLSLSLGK

This test has as its target human CCR6 N-terminal extracellular domain Fc fusion protein NthCCR6-IgG4Fc (human). Kind of test: SPR, Biacore T100; NthCCR6-IgG4Fc captured on anti-human IgG CM5 chip, antibody injected. A general note: Surface plasmon resonance follows binding to a sensor surface in real time, without labels.
Broadly, the Kd is the concentration at which binding is half-saturated. Read a low Kd as tighter binding. With “commercially available anti-human CCR6 monoclonal antibody 11A9 (BD Pharmingen)”, the equilibrium dissociation constant (Kd) came to 0.02 µM. “commercially available anti-human CCR6 monoclonal antibody R6H1 (eBioscience)” gave a Kd of 0.00497 µM. “human CCR6 monoclonal antibody (clone 53103) (R&D Systems)” registered a Kd of 0.0709 µM.
